Measured values taken from publication PMC5306355, “Clustered Genes Encoding 2-Keto-L-Gulonate Reductase and L-Idonate 5-Dehydrogenase in the Novel Fungal D-Glucuronic Acid Pathway” (Frontiers in Microbiology, 2017).

How the values were obtained:
Format in all cases: biochemical, Aspergillus niger
GluE [1] = test: NADH oxidation followed at […] nm; conditions: 400 μM NADH; 50 mM Tris pH 7
GluE [2] = test: NADH formation followed at […] nm; conditions: 400 μM NAD+; 50 mM Tris pH 8
purified protein [3] = substrate: O=C(O)C(=O)[C@@H](O)[C@H](O)[C@@H](O)CO; test: purified protein; conditions: NADPH as co-substrate (Methods print 400 μM NADH), 50 mM Tris pH 7
purified protein [4] = substrate: O=C(O)[C@H](O)[C@@H](O)[C@H](O)[C@@H](O)CO; test: purified protein; conditions: NADP+ as co-substrate (Methods print 400 μM NAD+), 50 mM Tris pH 8

O=C(CO)[C@@H](O)[C@H](O)[C@@H](O)C(=O)O [5-keto-D-gluconate]
Km (GluE [1]): 8.4 ± 0.1 mM

O=C(O)[C@H](O)[C@@H](O)[C@H](O)[C@@H](O)CO [L-idonate]
Km (GluE [2]): 30.9 ± 1.5 mM

B1: GluD (Aspergillus niger) (protein)
chain: MPAALLIGAITHSMPEWNDLSSILTLKEFPSGTREDFIRNCRDGQYDDVVAIYRSNTSTKFTGPFDAELLSFLPSSLKYIAHNGAGYDNIDVAACTKKGIAVSSTPVAVNNATADVAIFLMIGALRQAYIPVTSLREGKFLGQTGLGHDPQNKVLGILGMGGIGREVARRARAFGMTIQYHNRSRLSPELEDGATYVSFDELLANSDVLSLNLALNASTRHIIGKTEFQKMKDGVIIVNTARGALIDEKALVEALESGKVWSAGLDVYENEPAIEPGLVNNPRVMLLPHIGTMTYETQREMELLVLNNLRSGVETGKMITLVPEQKDVFGK
Km (purified protein [3]): 25.3 ± 1.2 mM | Vmax (purified protein [3]): 34.9 µmol/min/mg | kcat (purified protein [3]): 21.4 ± 0.3 s⁻¹ | Km (purified protein [4]): 12.6 ± 0.8 mM | Vmax (purified protein [4]): 1.7 µmol/min/mg | kcat (purified protein [4]): 1.1 s⁻¹
